# According to the supplement of paper PMC10567573:
# ± gives the standard deviation.
# Experiment: protein stability index of a GFP-peptide fusion (GPS, HEK-293T) (PSI 1-6); higher = more stable
# [1] = treatment: DMSO, c terminus: a fixed tail appended
# [2] = treatment: MLN4924 1 uM, 8 h, c terminus: a fixed tail appended
# [3] = treatment: DMSO, c terminus: native
# [4] = treatment: MLN4924 1 uM, 8 h, c terminus: native
# 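Also: 24-mer peptide tiles fused after GFP, lentivirally expressed, FACS-sorted into six equal bins by GFP/DsRed ratio, decoded by Illumina sequencing, PSI is the read-weighted mean bin number.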
Sequence,protein stability index [1],protein stability index [2],protein stability index [3],protein stability index [4]
DDGIKVVKVTFNKQDSLVILTIMA [TMEM106C],2.71 ± 1,3.11 ± 1,,
AIPYLEHIIHVWEETGSRFHNCLI [VPS39],2.31 ± 0.4,2.36 ± 0.54,,
ATDYLRYKPVVLLQGLSLIVTWFM [SLC19A2],2.35 ± 0.12,2.42 ± 0.19,,
CGCGSFCRLGYGCGYEGCRYGCGH [KRTAP19-2],2.55 ± 0.44,2.62 ± 0.46,,
KLLPHQPRIVEMKKGSNGYGFYLR [PDZK1],2.37 ± 0.12,2.47 ± 0.6,,
FGHHHQRAWIPSENIQDITVNIHR [ZMYND11],2.78 ± 0.37,2.69 ± 0.35,,
ASCSKNCTNSPAIVRFSGQSRGVP [FBXO34],3.68 ± 0.27,3.63 ± 0.25,,
PMDVYETGIEYIVAQGPTNQGLNV [ADAMTSL2],3.19 ± 0.68,3.54 ± 0.39,,
NMCGYHSQDRYEFSSHITRGEHRF [IKZF1],2.47 ± 0.24,2.55 ± 0.65,,
EGRGPVTPLHLDLTQLHRLSLESS [PLEKHN1],3.4 ± 0.31,3.28 ± 0.22,,
PEAAAAQLRATAGSLILPPGPGGT [FCHO1],4.26 ± 0.41,4.26 ± 0.53,,
LPEKPVKLASHTRDTTGVSQMFPS [FBF1],3.97 ± 0.13,3.99 ± 0.47,,
AIMNALIEAGAHMDATNAFKKTAY [FEM1A],2.51 ± 0.39,2.11 ± 0.35,,
PYKWVVEAANLLIPAVGSSLSEAL [MYBL2],2.88 ± 0.32,2.63 ± 0.67,,
FDECGITDDQLLALLPSLSHCSQL [PRAME],3.31 ± 0.15,3.56 ± 0.19,,
PHDRSQGDWAPPPEGGMEQALAGA [ZNF263],4.85 ± 0.26,4.83 ± 0.31,,
PVPILEKLPLQIDCLAAWEEWLLV [VPS39],2.24 ± 0.19,2.18 ± 0.27,,
TESEARYSSQLSQVQSLITNVESQ [KRT33B],4.66 ± 0.31,4.75 ± 0.071,,
GHGADVLCLDLAPSETGNTFVSGG [GNB5],4.24 ± 0.084,4.33 ± 0.4,,
GERPRSEEDNELNLPNLAAAYSSI [GCH1],4.71 ± 0.3,4.75 ± 0.075,,
IRKERKRLKLMQQNPAGELEGFQA [ATE1],3.87 ± 0.65,3.76 ± 0.32,,
STPLTATPGGRGDMKYGIYAVENE [VTI1B],4.53 ± 0.19,4.42 ± 0.22,,
LTFMNEQGEYPPGTSTWQFNFKFN [CNOT7],2.21 ± 0.074,2.39 ± 0.3,,

Sequence,protein stability index [1],protein stability index [2],protein stability index [3],protein stability index [4]
QQYQEQLDKSTKLVETAIQSLDEP [TRIM63],5.1 ± 0.32,5.07 ± 0.086,,
EIETWVREHCPENRERVVSLIEDL [ZNF449],3.9 ± 0.2,4.01 ± 0.29,,
REETPRMPSWASARDRQPSDFKTD [ELOA2],4.96 ± 0.18,5.03 ± 0.38,,
VCTFTYLLVGAAVFDALESDHEMR [KCNK9],2.9 ± 0.7,2.85 ± 0.15,,
EILTLLQGVHQGAGFQDIPKRCLK [TSN],2.08 ± 0.3,2.41 ± 0.49,,
SHFSRLSEEKLALDNNASASGNAT [C10orf62],5.03 ± 0.14,5.13 ± 0.26,,
EVQDLLEGCELPDLPSSLLLPEDM [SMG5],4.5 ± 0.13,4.67 ± 0.2,,
DKENGENVGLESKYLKKREDSIPL [SASS6],5.03 ± 0.18,4.76 ± 0.24,,
LPDAGSGRQPALRPHVHKQTEKTT [ISL2],5.26 ± 0.22,5.04 ± 0.23,,
SLKLALLFYILTFVGAIFNGLTLL [RTN2],3.88 ± 0.94,3.04 ± 0.11,,
TPAFMFRLDASTSHQNLRVDDLSV [FSD1],2.9 ± 0.28,3.07 ± 0.31,,
MLDHHPVAITVEVKQEEDIKPPPP [RAD54B],5.08 ± 0.22,5.19 ± 0.1,,
CTACGSVLEDNIIVSEVQFVESSG [BRF1],3.42 ± 0.57,3.74 ± 0.35,,
VCGHTLCESCVDLLFVRGAGNCPE [MNAT1],2.64 ± 0.42,2.87 ± 0.53,,
HLKKVASRYQNNIKNDKYGPWLEW [PRIM1],2.23 ± 0.38,2.3 ± 0.25,,
PIHTIILNPHVHLVGDDAACIAYI [CAMK2D],2 ± 0.45,3.12 ± 1.6,,
VRDQISHCTVKLRQTTGLMEYCLE [TRIM9],2.59 ± 0.31,2.65 ± 0.36,,
GRRCKKCTEGPIDLVFVIDGSKSL [MATN2],2.06 ± 0.35,2.41 ± 0.44,,
IKPSNIFISRTSIPNAASEEGDED [WEE1],4.71 ± 0.24,4.97 ± 0.27,,
ERAKREMVMYSITVAFWLLNSWLW [MFF],2.48 ± 0.48,1.87 ± 0.39,,
EGLRELQRSRRLCHEDVEALAAIY [DAPK3],2.72 ± 0.74,,,
GLAKCNGLSHSHDLSMDGLFGTIA [RIPK4],2.47 ± 0.43,2.38 ± 0.13,,
KLRLFDTPHTPKSLLSKARGIDSS [WEE1],3.19 ± 0.092,3.26 ± 0.32,,

Sequence,protein stability index [1],protein stability index [2],protein stability index [3],protein stability index [4]
VELPCRISPGKNATGMEVGWYRPP [MOG],2.33 ± 0.091,2.32 ± 0.28,,
IKVEQATKPSFESGRRGPPPPPRS [RBMX],4.06 ± 0.36,4.17 ± 0.34,,
PHVCSLCGKAFYKKYRLTEHERAH [ZNF649],4.54 ± 0.24,4.66 ± 0.55,,
VVQTLYPFSSVTEEELNFEKGETM [NCK2],3.66 ± 0.17,3.77 ± 0.29,,
GSQPNSGLALESSSGLQDVTGPDN [NFE2L1],5.45 ± 0.21,5.44 ± 0.3,,
ASQSLGSPMYFFLASLSFIDTVYS [OR4A15],2.89 ± 0.57,2.67 ± 0.96,,
LACWTYGISVPSGLFVPSLLCGAA [CLCN6],3.13 ± 0.1,3.43 ± 0.4,,
YAIVRRPTVGIGGDRLQFNQLSQA [EFHC1],2.06 ± 0.21,2.5 ± 0.19,,
RPSQYRPDGLRSGDGVPPRSLQDG [LCOR],4.83 ± 0.091,4.85 ± 0.17,,
PPKKPSNWRRKHEEFIATIRAAKG [ZC2HC1A],3.65 ± 0.15,3.82 ± 0.14,,
RSVRVRLLLSFWKETDPLTFNFIS [PLD5],2.89 ± 0.71,2.54 ± 0.18,,
ELEGLIADPDEMRMQALLIRERIL [FEM1C],2.54 ± 0.48,2.65 ± 0.43,,
AAIAFTLALFSHLVNHVNIRLQAE [SMG5],3.22 ± 0.4,3.46 ± 0.37,,
VLPHVPLGVIQRDLAKTGCVDLTI [AUP1],2.14 ± 0.25,2.37 ± 0.37,,
SVMFRKWRDSKGKDKEYAEIIRKQ [UBE2R2],2.98 ± 0.28,2.99 ± 0.18,,
LAAAVVQEHSNSVGGQDTGATWRT [C18orf25],4.22 ± 0.23,4.18 ± 0.21,,
SGADFHKKDKCGRTPLHYAAANCH [ANKRD44],3.42 ± 0.44,3.32 ± 0.27,,
RLNKLRLESEGSPETLTNLRKGYL [HACD3],3.25 ± 0.23,3.35 ± 0.33,,
QLGQRIYQYIQSRFYRSPEVLLGT [DYRK1B],2.23 ± 0.16,2.53 ± 0.44,,
LKERYQKIGDTKRNTPIEALCENF [CSNK1G1],3.43 ± 0.65,3.44 ± 0.49,,
WFPPAIMGVVSLVFLIIYYLDPSV [ARL6IP1],2.52 ± 0.46,3.28 ± 0.64,,
AQKTALLQDGRRKVHYLFPDGKEM [DPCD],3.29 ± 0.22,3.62 ± 0.23,,
NVHFKEETVKLFICELVMALDYLQ [STK32A],2.81 ± 0.7,2.85 ± 0.62,,

Sequence,protein stability index [1],protein stability index [2],protein stability index [3],protein stability index [4]
CEKTFNRKDHLKNHLQTHDPNKMA [PLAGL1],4.31 ± 0.26,4.42 ± 0.16,,
LSSQCFSNISRPRDNPMCLKCDLQ [M1AP],3.2 ± 0.035,3.27 ± 0.15,,
KKFRSSTSSSLGDKSEYLEMEEGV [KCNA4],4.6 ± 0.37,4.91 ± 0.28,,
CHSESGKSRLVQLPPVAVRSLQDL [PCMTD2],3.44 ± 0.33,3.28 ± 0.28,,
TGEHREFKLDKKYQRPQDSEDMWG [FBF1],4.56 ± 0.23,4.55 ± 0.35,,
HPAFLPQRQAIKGAFYRRAQRLRP [KCNG1],3.32 ± 0.37,3.58 ± 0.33,,
EYSPEEESEPPAPNIRNMAPNSLS [TRAF3IP2],5.04 ± 0.36,5.07 ± 0.27,,
VGVATADAPLHSVGYTTLVGNNHE [SPSB1],4.25 ± 0.45,4.16 ± 0.19,,
GLAYDRKKVSKAAILARIKRTGDG [SCD],3.27 ± 0.24,3.63 ± 0.35,,
SIKNSLKVAAISESPVAEKSAST [PTGFR],,,4.5 ± 0.14,4.27 ± 0.2
PNRFLRGHRPPPARSGHRCVADNT [KLHDC10],4.04 ± 0.2,4.32 ± 0.34,,
QENQARTHVLSKEVQHLREEKSKQ [LRRC45],5.2 ± 0.29,5.36 ± 0.29,,
VATWAIFVHRVGQPSIGGKLSPL [CTBP1-DT],,,3.12 ± 0.21,2.92 ± 0.47
WRWQLYAAQSTKSPWNFLGDELYE [CLPTM1],2.79 ± 0.38,2.39 ± 0.3,,
LESSYNDEMLSYLPGGTTGLQLPS [TFE3],3.94 ± 0.18,3.88 ± 0.27,,
TAELVVIEDAAEPKEPAPPNGSAA [PALM],5.39 ± 0.14,5.47 ± 0.16,,
PTHLSNGQMSTPETPQPSPPGGSG [HNF4A],5.15 ± 0.15,4.98 ± 0.24,,
SVLDDLLYAVGGHDGSSYLNSVER [KLHL20],2.71 ± 0.46,3.03 ± 0.56,,
SSTSPLMEGTPTIKSKKKLLQIID [VPS39],3.76 ± 0.23,3.79 ± 0.23,,
TCGGGVQFSSRDCTRPVPRNGGKY [ADAMTS4],4.19 ± 0.33,3.94 ± 0.65,,
